The record followed here is publication PMC7261152 (Nucleic Acids Research, 2020).

The target in this experiment is T1, human BCMA-Fc fusion protein (human, UniProt Q02223 1-54).
T1 sequence (looked up): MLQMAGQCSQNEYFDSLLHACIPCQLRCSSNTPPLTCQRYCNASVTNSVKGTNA
Description: ELISA. A general note: ELISA stands for enzyme-linked immunosorbent assay.

B1: anti-BCMA DVD-IgG1 (2) (bispecific antibody)
light: DIQMTQSPSSLSASVGDRVTITCSASQDISNYLNWYQQKPGKAPKLLIYYTSNLHSGVPSRFSGSGSGTDFTLTISSLQPEDFATYYCQQYRKLPWTFGQGTKLEIKASTKGPELQMTQSPSSLSASVGDRVTITCRSSQSLLHTYGSPYLNWYLQKPGQSPKLLIYKVSNRFSGVPSRFSGSGSGTDFTLTISSLQPEDFAVYFCSQGTHLPYTFGGGTKVEIKRTVAAPSVFIFPPSDEQLKSGTASVVCLLNNFYPREAKVQWKVDNALQSGNSQESVTEQDSKDSTYSLSSTLTLSKADYEKHKVYACEVTHQGLSSPVTKSFNRGEC
heavy: not shown
With B1, the binding result is listed as “binds”.
